Assay results reported in patent publication US20260274981A1 (VIB VZW, published 2026).
Read-outs that look alike come from different tables or passages of the source.

How the values were obtained:
[1] = biological target: T1, recombinant human TfR (2474-TR, R&D Systems), biotinylated (human, UniProt P02786 89-760, biotinylated with EZ-Link NHS-PEG4-Biotinylation Kit); assay: SPR (Biacore), biotinylated human TfR captured on an SA chip, VHH injected, 1:1 dissociation fit, pH 7.4
T1 construct: Bought protein; also called immobilized recombinant human TfR; biotinylated human TfR
T1 sequence (P02786 89-760 limits assumed): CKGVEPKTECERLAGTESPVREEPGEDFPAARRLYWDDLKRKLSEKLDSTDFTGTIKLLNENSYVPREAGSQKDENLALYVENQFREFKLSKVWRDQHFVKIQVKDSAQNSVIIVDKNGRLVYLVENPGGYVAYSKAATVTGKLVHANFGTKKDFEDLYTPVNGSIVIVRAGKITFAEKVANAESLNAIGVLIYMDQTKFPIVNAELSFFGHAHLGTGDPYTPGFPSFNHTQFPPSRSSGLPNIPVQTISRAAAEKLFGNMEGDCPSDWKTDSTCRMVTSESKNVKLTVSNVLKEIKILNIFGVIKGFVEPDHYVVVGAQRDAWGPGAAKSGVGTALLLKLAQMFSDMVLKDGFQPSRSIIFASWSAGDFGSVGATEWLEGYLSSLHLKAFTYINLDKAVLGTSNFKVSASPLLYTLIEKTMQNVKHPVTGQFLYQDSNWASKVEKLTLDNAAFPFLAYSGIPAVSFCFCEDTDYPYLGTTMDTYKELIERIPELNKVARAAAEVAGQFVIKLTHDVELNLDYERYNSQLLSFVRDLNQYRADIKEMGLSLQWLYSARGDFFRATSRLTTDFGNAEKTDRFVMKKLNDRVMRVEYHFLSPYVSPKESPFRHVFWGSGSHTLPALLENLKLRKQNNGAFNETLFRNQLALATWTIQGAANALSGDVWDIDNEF
Experimental: (§1) In brief, DNA was synthesized by Genscript (Piscataway, New Jersey, United States) and cloned into an E. coli compatible expression plasmid according to standard methods. E. coli TG1 bacteria were transformed with those plasmids and expressions induced. Crude extracts were prepared and analyzed for binding by flow cytometry on human TfR overexpressing cells. […] Next, off rates of these selected variants were determined on recombinant human TfR by surface plasmon resonance (Biacore, Marlborough, Massachusetts, United States). Biotinylated human TfR was captured on a streptavidin-coated SA sensor chip (Cytiva). Increasing concentrations of nanobodies were sequentially injected in a single cycle at a flow rate of 30 μL/min. The dissociation was monitored for around 20 min. A reference flow was used as a control for non-specific binding and refractive index changes. Several buffer blanks were used for double referencing. Off rates were derived after fitting the experimental data to the 1:1 binding model with the Biacore Evaluation Software.

[2] = biological target: T1, recombinant human TfR (2474-TR, R&D …); assay: SPR (Biacore), biotinylated human TfR captured on an SA chip, VHH injected, 1:1 dissociation fit, pH 5.5
Experimental: as §1

[3] = biological target: T1, recombinant human TfR (2474-TR, R&D …); assay: SPR (Biacore), ratio of the off rates on human TfR at the two pH values; the printed number equals kd at pH 5.5 divided by kd at pH 7.4
Experimental: as §1

[4] = biological target: T1, recombinant human TfR (2474-TR, R&D …); assay: as above; remark: listed apart in the source
Experimental: as §1, with “E.” for “In brief, DNA was synthesized by Genscript (Piscataway, New Jersey, United States) and cloned into an E. coli compatible expression plasmid according to standard methods. E.”
(§2) Surface Plasmon Resonance (SPR) was used to measure the interaction between VHHs and human or cynomolgus TfR receptor. Human TfR (2474-TR, R&D Systems) and cynomolgus TfR (90253-C07H, Sino Biological) were biotinylated with the EZ-Link NHS-PEG4-Biotinylation Kit (ThermoFischer Scientific) according to the manufacturer instructions. The binding experiments were performed at 25° C. on a Biacore T200 instrument (Cytiva, Uppsala, Sweden) in HBS-EP+ buffer (10 mM HEPES, 150 mM NaCl, 3 mM EDTA and 0.05% v/v Surfactant P20). Biotinylated human TfR and cynomolgus TfR were captured on a SA sensor chip (Cytiva) at a density of around 250 RU. Increasing concentrations of VHHs were sequentially injected in one single cycle at a flow rate of 30 μl/min. The dissociation was monitored for 20 min. […] A reference flow was used as a control for non-specific binding and refractive index changes. Several buffer blanks were used for double referencing. Binding affinities (KD) and kinetic rate constants (kₒₙ, koff) were derived after fitting the experimental data to the 1:1 binding model with the Biacore T200 Evaluation Software 3.1 using the single cycle kinetic procedure.

[5] = biological target: T1, recombinant human TfR (2474-TR, R&D …); assay: SPR (Biacore), biotinylated human TfR captured on an SA chip, VHH injected, 1:1 dissociation fit, pH 7.4; remark: listed apart in the source
Experimental: as §1, with “E.” for “In brief, DNA was synthesized by Genscript (Piscataway, New Jersey, United States) and cloned into an E. coli compatible expression plasmid according to standard methods. E.”
as §2

[6] = biological target: T1, recombinant human TfR (2474-TR, R&D …); assay: SPR (Biacore), biotinylated human TfR captured on an SA chip, VHH injected, 1:1 dissociation fit, pH 5.5; remark: listed apart in the source
Experimental: as §1, with “E.” for “In brief, DNA was synthesized by Genscript (Piscataway, New Jersey, United States) and cloned into an E. coli compatible expression plasmid according to standard methods. E.”
as §2

B1: BBB00677 (VHH)
VHH: EVQLVESGGGSVQPGGSLRLSCTASGRTFNYAMGWFRQAPGKNREFVATIDWKDGSSYYLDSVRGRFTIERDDAKNTVYLQMNSLRPEDAAVYTCAVGDGDYCSTYTCAAEVEYDYWGQGTLVTVSS
notes: also called variant of BBB00533
B1 was tested, and the koff [1] was 0.00545 s⁻¹, the koff [2] was 0.00946 s⁻¹ and the “off-rate ratio kd pH5.5/kd pH7.4” value [3] was 1.74.

B2: BBB00707 (VHH)
VHH: EVQLVESGGGSVQPGGSLRLSCTASGRTFNYAMGWFRQAPGKNREFVATIDWHDGSSYYLDSVRGRFTIERDDAKNTVYLQMNSLRPEDAAVYTCAVGDGDYCSTYTCAAEVEYDYWGQGTLVTVSS
notes: Histidine mutant
In the case of B2, the koff [1] is reported as 0.00439 s⁻¹, the koff [2] is reported as 0.00632 s⁻¹ and the “off-rate ratio kd pH5.5/kd pH7.4” value [3] is reported as 1.44.

B3: BBB00697 (VHH)
VHH: EVQLVESGGGSVQPGGSLRLSCTASGRTHNYAMGWFRQAPGKNREFVATIDWKDGSSYYLDSVRGRFTIERDDAKNTVYLQMNSLRPEDAAVYTCAVGDGDYCSTYTCAAEVEYDYWGQGTLVTVSS
notes: also called histidine mutant of BBB00515
In the case of B3, the koff [1] is reported as 0.00596 s⁻¹, the koff [2] is reported as 0.0107 s⁻¹ and the “off-rate ratio kd pH5.5/kd pH7.4” value [3] is reported as 1.79.

B4: BBB00729 (VHH)
VHH: EVQLVESGGGSVQPGGSLRLSCTASGRTFNYAMGWFRQAPGKNREFVATIDWKDGSSYYLDSVRGRFTIERDDAKNTVYLQMNSLRPEDAAVYTCAVGDGDYCSTYTCAAEVEYDHWGQGTLVTVSS
notes: as for B3
For B4, the koff [1] was 0.00562 s⁻¹, the koff [2] was 0.0113 s⁻¹ and the “off-rate ratio kd pH5.5/kd pH7.4” value [3] was 2.01.

B5: BBB00709 (VHH)
VHH: EVQLVESGGGSVQPGGSLRLSCTASGRTFNYAMGWFRQAPGKNREFVATIDWKDHSSYYLDSVRGRFTIERDDAKNTVYLQMNSLRPEDAAVYTCAVGDGDYCSTYTCAAEVEYDYWGQGTLVTVSS
notes: as for B3
With B5 the koff [1] was 0.00511 s⁻¹, the koff [2] was 0.00937 s⁻¹ and the “off-rate ratio kd pH5.5/kd pH7.4” value [3] was 1.84.

B6: BBB00695 (VHH)
VHH: EVQLVESGGGSVQPGGSLRLSCTASGHTFNYAMGWFRQAPGKNREFVATIDWKDGSSYYLDSVRGRFTIERDDAKNTVYLQMNSLRPEDAAVYTCAVGDGDYCSTYTCAAEVEYDYWGQGTLVTVSS
notes: Histidine mutant
B6 was tested, and the koff [1] was 0.00577 s⁻¹, the koff [2] was 0.00874 s⁻¹ and the “off-rate ratio kd pH5.5/kd pH7.4” value [3] was 1.51.

B7: BBB00708 (VHH)
VHH: EVQLVESGGGSVQPGGSLRLSCTASGRTFNYAMGWFRQAPGKNREFVATIDWKHGSSYYLDSVRGRFTIERDDAKNTVYLQMNSLRPEDAAVYTCAVGDGDYCSTYTCAAEVEYDYWGQGTLVTVSS
notes: Histidine mutant
For B7, the koff [1] was 0.00547 s⁻¹, the koff [2] was 0.0086 s⁻¹ and the “off-rate ratio kd pH5.5/kd pH7.4” value [3] was 1.57.

B8: BBB00716 (VHH)
VHH: EVQLVESGGGSVQPGGSLRLSCTASGRTFNYAMGWFRQAPGKNREFVATIDWKDGSSYYLDSVRGRFTIERDDAKNTVYLQMNSLRPEDAAVYTCAVGDGHYCSTYTCAAEVEYDYWGQGTLVTVSS
notes: Histidine mutant
For B8, the koff [1] was 0.00533 s⁻¹, the koff [2] was 0.00904 s⁻¹ and the “off-rate ratio kd pH5.5/kd pH7.4” value [3] was 1.7.

B9: BBB00728 (VHH)
VHH: EVQLVESGGGSVQPGGSLRLSCTASGRTFNYAMGWFRQAPGKNREFVATIDWKDGSSYYLDSVRGRFTIERDDAKNTVYLQMNSLRPEDAAVYTCAVGDGDYCSTYTCAAEVEYHYWGQGTLVTVSS
notes: Histidine mutant
In the case of B9, the koff [1] is reported as 0.00787 s⁻¹, the koff [2] is reported as 0.0127 s⁻¹ and the “off-rate ratio kd pH5.5/kd pH7.4” value [3] is reported as 1.62.

B10: BBB00710 (VHH)
VHH: EVQLVESGGGSVQPGGSLRLSCTASGRTFNYAMGWFRQAPGKNREFVATIDWKDGHSYYLDSVRGRFTIERDDAKNTVYLQMNSLRPEDAAVYTCAVGDGDYCSTYTCAAEVEYDYWGQGTLVTVSS
notes: as for B3
With B10 the koff [1] was 0.00444 s⁻¹, the koff [2] was 0.0126 s⁻¹ and the “off-rate ratio kd pH5.5/kd pH7.4” value [3] was 2.84.

B11: BBB00699 (VHH)
VHH: EVQLVESGGGSVQPGGSLRLSCTASGRTFNHAMGWFRQAPGKNREFVATIDWKDGSSYYLDSVRGRFTIERDDAKNTVYLQMNSLRPEDAAVYTCAVGDGDYCSTYTCAAEVEYDYWGQGTLVTVSS
notes: Histidine mutant
For B11, the koff [1] was 0.00524 s⁻¹, the koff [2] was 0.00858 s⁻¹ and the “off-rate ratio kd pH5.5/kd pH7.4” value [3] was 1.64.

B12: BBB00704 (VHH)
VHH: EVQLVESGGGSVQPGGSLRLSCTASGRTFNYAMGWFRQAPGKNREFVATHDWKDGSSYYLDSVRGRFTIERDDAKNTVYLQMNSLRPEDAAVYTCAVGDGDYCSTYTCAAEVEYDYWGQGTLVTVSS
notes: as for B3
B12 was tested, and the koff [1] was 0.00358 s⁻¹, the koff [2] was 0.00911 s⁻¹ and the “off-rate ratio kd pH5.5/kd pH7.4” value [3] was 2.55.

B13: BBB00718 (VHH)
VHH: EVQLVESGGGSVQPGGSLRLSCTASGRTFNYAMGWFRQAPGKNREFVATIDWKDGSSYYLDSVRGRFTIERDDAKNTVYLQMNSLRPEDAAVYTCAVGDGDYCHTYTCAAEVEYDYWGQGTLVTVSS
notes: as for B3
B13 was tested, and the koff [1] was 0.00695 s⁻¹, the koff [2] was 0.0154 s⁻¹ and the “off-rate ratio kd pH5.5/kd pH7.4” value [3] was 2.21.

B14: BBB00698 (VHH)
VHH: EVQLVESGGGSVQPGGSLRLSCTASGRTFHYAMGWFRQAPGKNREFVATIDWKDGSSYYLDSVRGRFTIERDDAKNTVYLQMNSLRPEDAAVYTCAVGDGDYCSTYTCAAEVEYDYWGQGTLVTVSS
notes: as for B3
B14 was tested, and the koff [1] was 0.00506 s⁻¹, the koff [2] was 0.0109 s⁻¹ and the “off-rate ratio kd pH5.5/kd pH7.4” value [3] was 2.15.

B15: BBB00719 (VHH)
VHH: EVQLVESGGGSVQPGGSLRLSCTASGRTFNYAMGWFRQAPGKNREFVATIDWKDGSSYYLDSVRGRFTIERDDAKNTVYLQMNSLRPEDAAVYTCAVGDGDYCSHYTCAAEVEYDYWGQGTLVTVSS
notes: Histidine mutant
For B15, the koff [1] was 0.00586 s⁻¹, the koff [2] was 0.0091 s⁻¹ and the “off-rate ratio kd pH5.5/kd pH7.4” value [3] was 1.55.

B16: BBB00694 (VHH)
VHH: EVQLVESGGGSVQPGGSLRLSCTASHRTFNYAMGWFRQAPGKNREFVATIDWKDGSSYYLDSVRGRFTIERDDAKNTVYLQMNSLRPEDAAVYTCAVGDGDYCSTYTCAAEVEYDYWGQGTLVTVSS
notes: Histidine mutant
B16 was tested, and the koff [1] was 0.00538 s⁻¹, the koff [2] was 0.00728 s⁻¹ and the “off-rate ratio kd pH5.5/kd pH7.4” value [3] was 1.35.

B17: BBB00736 (VHH)
VHH: EVQLVESGGGLVQAGGSLRLSCAASGSIFSINAMGWYRQAPGKQRELVAVITSGGSTIYADSVKGRFTISRDNAENTVYLQMNSLRPEDTAVYYCNAHVGLKVPTIQELSLGFGSWGQGTLVTVSS
notes: also called variant of BBB00515
In the case of B17, the “off-rate ratio kd pH5.5/kd pH7.4” value [4] is reported as 2.35, the koff [5] is reported as 0.00782 s⁻¹ and the koff [6] is reported as 0.0183 s⁻¹.

B18: BBB00737 (VHH)
VHH: EVQLVESGGGLVQAGGSLRLSCAASHSIFSINAMGWYRQAPGKQRELVAVITSGGSTIYADSVKGRFTISRDNAENTVYLQMNSLRPEDTAVYYCNAHVGLKVPTIQELSLGFGSWGQGTLVTVSS
notes: Histidine mutant
With B18 the “off-rate ratio kd pH5.5/kd pH7.4” value [4] was 2.32, the koff [5] was 0.00861 s⁻¹ and the koff [6] was 0.02 s⁻¹.
